{"source": "patent US20110311507", "molecules": {"B1": {"name": "FLAG-tagged murine C196F SIAE (protein)", "chain": "IGFRFASYIDNYMVLQKEPSGAVIWGFGTPGATVTVTLCQGQETIMKKVTSVKEPSNTWMVVLDPMKPGGPFEVMAQQTLGTMNFTLRVHDVLFGDVWLCSGQSNMQMTVSQIFNASKELSDTAAYQSVRIFSVSLIQSEEELDDLTEVDLSWSKPTAGNLGHGNFTYMSAVFWLFGRYLYDTLQYPIGLVSSSWGGTYIEVWSSRRTLKACGVPNTRDERVGQPEIKPMRNECNSEESSCPFRVVPSVRVTGPTRHSVLWNAMIHPLQNMTLKGVVWYQGESNADYNRDLYTCMFPELIEDWRQTFHYGSQGQTDRFFPFGFVQLSSYMLKNSSDYGFPEIRWHQTADFGHVPNPKMPNTFMAVAIDLCDRDSPFGSIHPRDKQTVAYRLHLGARAVAYGEKNLTFQGPLPKKIELLASNGLLNLTYDQEIQVQMQDNKTFEISCCSDRHCKWLPAPVNTFSTQTLILDLNACLGTVVAVRYAWTTWPCEYKQCAVYHTSSMLPAPPFIAQISHRGI"}, "B2": {"name": "FLAG-tagged murine G212R Siae (protein)", "chain": "B1 chain with F173C, G189R"}}, "key": {"[1]": {"target": "T1, V5-tagged wild type murine Siae (UniProt P70665)", "T1 sequence": "B1 chain with F173C"}, "[2]": {"target": "T2, V5-tagged wild type murine Siae, P70665", "T2 chain": "B1 chain with F173C"}}, "note": "Residue numbers refer to the chain shown, from its start. Names may count otherwise."}
{"molecule": "FLAG-tagged K426N Siae", "values": [{"measurement": "enzyme activity of V5-tagged WT Siae in co-transfectants, as a function of its protein level", "setting": "[1]", "result": "lacks dominant negative activity"}]}
{"molecule": "FLAG-tagged murine R505C Siae", "values": [{"measurement": "enzyme activity of V5-tagged wild type Siae in co-transfectants, as a function of its protein level", "setting": "[1]", "result": "function in a dominant interfering fashion"}]}
{"molecule": "FLAG-tagged murine F430S Siae", "values": [{"measurement": "enzyme activity of V5-tagged wild type Siae in co-transfectants, as a function of its protein level", "setting": "[1]", "result": "function in a dominant interfering fashion"}]}
{"molecule": "FLAG-tagged murine Q335P SIAE", "values": [{"measurement": "enzyme activity of V5 tagged wild type SIAE in co-transfectants, as a function of its protein level", "setting": "[1]", "result": "function in a dominant interfering fashion"}]}
{"molecule": "FLAG-tagged murine T338M SIAE", "values": [{"measurement": "enzyme activity of V5 tagged wild type SIAE in co-transfectants, as a function of its protein level", "setting": "[1]", "result": "function in a dominant interfering fashion"}]}
{"molecule": "FLAG-tagged murine Y375C Siae", "values": [{"measurement": "enzyme activity of V5-tagged wild type Siae in co-transfectants, as a function of its protein level", "setting": "[1]", "result": "function in a dominant interfering fashion"}]}
{"molecule": "B1", "values": [{"measurement": "enzyme activity of V5 tagged wild type SIAE in co-transfectants, as a function of its protein level", "setting": "[2]", "result": "function in a dominant interfering fashion"}]}
{"molecule": "B2", "values": [{"measurement": "enzyme activity of V5-tagged wild type Siae in co-transfectants, as a function of its protein level", "setting": "[2]", "result": "function in a dominant interfering fashion"}]}
